The target in experiment [1] is T1, Factor VIIIa (FVIIIa), from recombinant FVIII (Kogenate FS; Bayer healthcare) activated with alpha-thrombin (UniProt P00451 20-2351).
T1 sequence (looked up): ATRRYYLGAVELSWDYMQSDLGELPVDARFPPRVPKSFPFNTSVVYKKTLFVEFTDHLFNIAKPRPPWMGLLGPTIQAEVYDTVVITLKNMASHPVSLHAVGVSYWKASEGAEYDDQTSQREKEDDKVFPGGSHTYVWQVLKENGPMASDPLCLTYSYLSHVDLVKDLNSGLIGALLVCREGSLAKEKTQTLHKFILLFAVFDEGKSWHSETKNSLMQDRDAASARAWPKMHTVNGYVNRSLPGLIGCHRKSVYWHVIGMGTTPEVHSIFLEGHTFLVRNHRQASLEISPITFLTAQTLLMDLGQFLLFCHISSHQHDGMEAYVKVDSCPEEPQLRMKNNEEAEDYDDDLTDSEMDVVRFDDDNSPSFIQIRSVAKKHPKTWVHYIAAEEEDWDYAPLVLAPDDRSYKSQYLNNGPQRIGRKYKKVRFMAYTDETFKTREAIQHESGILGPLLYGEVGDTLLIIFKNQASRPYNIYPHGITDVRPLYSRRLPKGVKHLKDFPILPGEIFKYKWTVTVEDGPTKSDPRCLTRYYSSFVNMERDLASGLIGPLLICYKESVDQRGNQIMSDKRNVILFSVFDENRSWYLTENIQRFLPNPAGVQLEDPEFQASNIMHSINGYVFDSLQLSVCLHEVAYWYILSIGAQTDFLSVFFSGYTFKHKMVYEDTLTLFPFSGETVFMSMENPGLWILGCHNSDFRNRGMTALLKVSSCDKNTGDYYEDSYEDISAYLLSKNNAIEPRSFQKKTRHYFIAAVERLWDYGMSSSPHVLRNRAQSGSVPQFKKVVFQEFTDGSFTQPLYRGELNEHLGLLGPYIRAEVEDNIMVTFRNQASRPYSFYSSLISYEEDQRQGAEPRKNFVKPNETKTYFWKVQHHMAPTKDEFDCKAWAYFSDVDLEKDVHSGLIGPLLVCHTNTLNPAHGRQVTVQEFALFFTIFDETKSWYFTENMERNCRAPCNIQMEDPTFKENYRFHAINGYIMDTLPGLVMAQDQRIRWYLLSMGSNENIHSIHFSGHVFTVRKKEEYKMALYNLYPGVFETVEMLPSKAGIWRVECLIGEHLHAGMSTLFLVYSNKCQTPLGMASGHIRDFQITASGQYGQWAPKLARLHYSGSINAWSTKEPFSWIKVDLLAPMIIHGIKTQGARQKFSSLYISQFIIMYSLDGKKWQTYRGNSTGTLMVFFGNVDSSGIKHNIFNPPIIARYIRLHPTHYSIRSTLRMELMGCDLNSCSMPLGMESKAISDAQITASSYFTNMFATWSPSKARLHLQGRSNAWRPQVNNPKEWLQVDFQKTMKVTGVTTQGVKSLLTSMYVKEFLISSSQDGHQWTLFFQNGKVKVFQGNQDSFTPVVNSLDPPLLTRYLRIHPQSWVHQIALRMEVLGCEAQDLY
Put plainly: ratio of KD-app of Catalyst Biosciences WT FIXa to KD-app of the variant, same Xase assay.
Text: (§1) The activity of alpha-thrombin was then quenched by the addition of a highly specific thrombin inhibitor, hirudin, prior to initiating the assay.

Experiment [2] concerns the target T1, Factor VIIIa (FVIIIa), from recombinant …. Put plainly: apparent functional KD (KD-app): FX activation rate vs FVIIIa titration, fluorogenic Xase assay with PC/PS vesicles and Ca2+.
Text: as §1

B1: FIXa variant R318Y/R338E/N346D/R403E/E410N (enzyme)
light: YNSGKLEEFVQGNLERECMEEKCSFEEAREVFENTERTTEFWKQYVDGDQCESNPCLNGGSCKDDINSYECWCPFGFEGKNCELDVTCNIKNGRCEQFCKNSADNKVVCSCTEGYRLAENQKSCEPAVPFPCGRVSVSQTSKLTR
heavy: VVGGEDAKPGQFPWQVVLNGKVDAFCGGSIVNEKWIVTAAHCVETGVKITVVAGEHNIEETEHTEQKRNVIRIIPHHNYNAAINKYNHDIALLELDEPLVLNSYVTPICIADKEYTNIFLKFGSGYVSGWGRVFHKGYSALVLQYLRVPLVDRATCLESTKFTIYDNMFCAGFHEGGRDSCQGDSGGPHVTEVEGTSFLTGIISWGEECAMKGKYGIYTKVSEYVNWIKNKTKLT
notes: also called R150Y/R170E/N178D/R233E/E240N
As to B1, the KD-WT/KD-mut in experiment [1] is 0.9 fold. For the same molecule, the Kd in experiment [2] turned out to be 110 nM.

B2: FIXa variant R318Y/R338E/T343R/N346Y/R403E/E410N (enzyme)
light: YNSGKLEEFVQGNLERECMEEKCSFEEAREVFENTERTTEFWKQYVDGDQCESNPCLNGGSCKDDINSYECWCPFGFEGKNCELDVTCNIKNGRCEQFCKNSADNKVVCSCTEGYRLAENQKSCEPAVPFPCGRVSVSQTSKLTR
heavy: VVGGEDAKPGQFPWQVVLNGKVDAFCGGSIVNEKWIVTAAHCVETGVKITVVAGEHNIEETEHTEQKRNVIRIIPHHNYNAAINKYNHDIALLELDEPLVLNSYVTPICIADKEYTNIFLKFGSGYVSGWGRVFHKGYSALVLQYLRVPLVDRATCLESTKFRIYYNMFCAGFHEGGRDSCQGDSGGPHVTEVEGTSFLTGIISWGEECAMKGKYGIYTKVSEYVNWIKNKTKLT
notes: also called R150Y/R170E/T175R/N178Y/R233E/E240N
On to B2, for which the KD-WT/KD-mut in experiment [1] is 6.1 fold. Further, the Kd in experiment [2] was determined as 15.6 nM.

B3: FIXa variant Y155F/K247N/N249S/R318Y/R338E/E410N (enzyme)
light: YNSGKLEEFVQGNLERECMEEKCSFEEAREVFENTERTTEFWKQYVDGDQCESNPCLNGGSCKDDINSYECWCPFGFEGKNCELDVTCNIKNGRCEQFCKNSADNKVVCSCTEGYRLAENQKSCEPAVPFPCGRVSVSQTSKLTR
heavy: VVGGEDAKPGQFPWQVVLNGKVDAFCGGSIVNEKWIVTAAHCVETGVKITVVAGEHNIEETEHTEQNRSVIRIIPHHNYNAAINKYNHDIALLELDEPLVLNSYVTPICIADKEYTNIFLKFGSGYVSGWGRVFHKGYSALVLQYLRVPLVDRATCLESTKFTIYNNMFCAGFHEGGRDSCQGDSGGPHVTEVEGTSFLTGIISWGEECAMKGKYGIYTKVSRYVNWIKNKTKLT
As for B3, the KD-WT/KD-mut in experiment [1] stood at 12.8 fold. Also, in experiment [2], the Kd came to 7.4 nM.

B4: FIXa variant R318Y/R338E/T343R/R403E/E410N (enzyme)
light: YNSGKLEEFVQGNLERECMEEKCSFEEAREVFENTERTTEFWKQYVDGDQCESNPCLNGGSCKDDINSYECWCPFGFEGKNCELDVTCNIKNGRCEQFCKNSADNKVVCSCTEGYRLAENQKSCEPAVPFPCGRVSVSQTSKLTR
heavy: VVGGEDAKPGQFPWQVVLNGKVDAFCGGSIVNEKWIVTAAHCVETGVKITVVAGEHNIEETEHTEQKRNVIRIIPHHNYNAAINKYNHDIALLELDEPLVLNSYVTPICIADKEYTNIFLKFGSGYVSGWGRVFHKGYSALVLQYLRVPLVDRATCLESTKFRIYNNMFCAGFHEGGRDSCQGDSGGPHVTEVEGTSFLTGIISWGEECAMKGKYGIYTKVSEYVNWIKNKTKLT
notes: also called R150Y/R170E/T175R/R233E/E240N
B4: the KD-WT/KD-mut in experiment [1] was determined as 6.6 fold. Further, in experiment [2], the Kd stood at 14.5 nM.

B5: FIXa variant Y155F/K247N/N249S/N260S (enzyme)
light: YNSGKLEEFVQGNLERECMEEKCSFEEAREVFENTERTTEFWKQYVDGDQCESNPCLNGGSCKDDINSYECWCPFGFEGKNCELDVTCNIKNGRCEQFCKNSADNKVVCSCTEGYRLAENQKSCEPAVPFPCGRVSVSQTSKLTR
heavy: VVGGEDAKPGQFPWQVVLNGKVDAFCGGSIVNEKWIVTAAHCVETGVKITVVAGEHNIEETEHTEQNRSVIRIIPHHNYSAAINKYNHDIALLELDEPLVLNSYVTPICIADKEYTNIFLKFGSGYVSGWGRVFHKGRSALVLQYLRVPLVDRATCLRSTKFTIYNNMFCAGFHEGGRDSCQGDSGGPHVTEVEGTSFLTGIISWGEECAMKGKYGIYTKVSRYVNWIKEKTKLT
For B5, in experiment [1], the KD-WT/KD-mut was 0.6 fold. Moreover, the Kd in experiment [2] came out at 167 nM.

B6: FIXa variant R318Y/R338E/R403E/E410S (enzyme)
light: YNSGKLEEFVQGNLERECMEEKCSFEEAREVFENTERTTEFWKQYVDGDQCESNPCLNGGSCKDDINSYECWCPFGFEGKNCELDVTCNIKNGRCEQFCKNSADNKVVCSCTEGYRLAENQKSCEPAVPFPCGRVSVSQTSKLTR
heavy: VVGGEDAKPGQFPWQVVLNGKVDAFCGGSIVNEKWIVTAAHCVETGVKITVVAGEHNIEETEHTEQKRNVIRIIPHHNYNAAINKYNHDIALLELDEPLVLNSYVTPICIADKEYTNIFLKFGSGYVSGWGRVFHKGYSALVLQYLRVPLVDRATCLESTKFTIYNNMFCAGFHEGGRDSCQGDSGGPHVTEVEGTSFLTGIISWGEECAMKGKYGIYTKVSEYVNWIKSKTKLT
notes: also called R150Y/R170E/R233E/E240S
Consider B6, for which, in experiment [1], the KD-WT/KD-mut came to 1.8 fold. The Kd in experiment [2] came out at 53.1 nM.

B7: FIXa variant Y155F/K228N/R318Y/R338E/R403E/E410N (enzyme)
light: YNSGKLEEFVQGNLERECMEEKCSFEEAREVFENTERTTEFWKQYVDGDQCESNPCLNGGSCKDDINSYECWCPFGFEGKNCELDVTCNIKNGRCEQFCKNSADNKVVCSCTEGYRLAENQKSCEPAVPFPCGRVSVSQTSKLTR
heavy: VVGGEDAKPGQFPWQVVLNGKVDAFCGGSIVNEKWIVTAAHCVETGVNITVVAGEHNIEETEHTEQKRNVIRIIPHHNYNAAINKYNHDIALLELDEPLVLNSYVTPICIADKEYTNIFLKFGSGYVSGWGRVFHKGYSALVLQYLRVPLVDRATCLESTKFTIYNNMFCAGFHEGGRDSCQGDSGGPHVTEVEGTSFLTGIISWGEECAMKGKYGIYTKVSEYVNWIKNKTKLT
With B7, the KD-WT/KD-mut in experiment [1] worked out at 3.1 fold. In addition, the Kd in experiment [2] is 31.2 nM.

B8: FIXa variant R318Y/R338E/T343R/N346D/R403E/E410N (enzyme)
light: YNSGKLEEFVQGNLERECMEEKCSFEEAREVFENTERTTEFWKQYVDGDQCESNPCLNGGSCKDDINSYECWCPFGFEGKNCELDVTCNIKNGRCEQFCKNSADNKVVCSCTEGYRLAENQKSCEPAVPFPCGRVSVSQTSKLTR
heavy: VVGGEDAKPGQFPWQVVLNGKVDAFCGGSIVNEKWIVTAAHCVETGVKITVVAGEHNIEETEHTEQKRNVIRIIPHHNYNAAINKYNHDIALLELDEPLVLNSYVTPICIADKEYTNIFLKFGSGYVSGWGRVFHKGYSALVLQYLRVPLVDRATCLESTKFRIYDNMFCAGFHEGGRDSCQGDSGGPHVTEVEGTSFLTGIISWGEECAMKGKYGIYTKVSEYVNWIKNKTKLT
notes: also called R150Y/R170E/T175R/N178D/R233E/E240N
With B8, the KD-WT/KD-mut in experiment [1] was 1.3 fold. In addition, the Kd in experiment [2] is 76.2 nM.

B9: FIXa variant R318Y/R338E/R403E/E410N/T412V (enzyme)
light: YNSGKLEEFVQGNLERECMEEKCSFEEAREVFENTERTTEFWKQYVDGDQCESNPCLNGGSCKDDINSYECWCPFGFEGKNCELDVTCNIKNGRCEQFCKNSADNKVVCSCTEGYRLAENQKSCEPAVPFPCGRVSVSQTSKLTR
heavy: VVGGEDAKPGQFPWQVVLNGKVDAFCGGSIVNEKWIVTAAHCVETGVKITVVAGEHNIEETEHTEQKRNVIRIIPHHNYNAAINKYNHDIALLELDEPLVLNSYVTPICIADKEYTNIFLKFGSGYVSGWGRVFHKGYSALVLQYLRVPLVDRATCLESTKFTIYNNMFCAGFHEGGRDSCQGDSGGPHVTEVEGTSFLTGIISWGEECAMKGKYGIYTKVSEYVNWIKNKVKLT
notes: also called R150Y/R170E/R233E/E240N/T242V
B9: the KD-WT/KD-mut in experiment [1] is 1.7 fold. Further, the Kd in experiment [2] amounted to 55 nM.

B10: FIXa variant R318Y/R338E/N346Y/R403E/E410N (enzyme)
light: YNSGKLEEFVQGNLERECMEEKCSFEEAREVFENTERTTEFWKQYVDGDQCESNPCLNGGSCKDDINSYECWCPFGFEGKNCELDVTCNIKNGRCEQFCKNSADNKVVCSCTEGYRLAENQKSCEPAVPFPCGRVSVSQTSKLTR
heavy: VVGGEDAKPGQFPWQVVLNGKVDAFCGGSIVNEKWIVTAAHCVETGVKITVVAGEHNIEETEHTEQKRNVIRIIPHHNYNAAINKYNHDIALLELDEPLVLNSYVTPICIADKEYTNIFLKFGSGYVSGWGRVFHKGYSALVLQYLRVPLVDRATCLESTKFTIYYNMFCAGFHEGGRDSCQGDSGGPHVTEVEGTSFLTGIISWGEECAMKGKYGIYTKVSEYVNWIKNKTKLT
notes: also called R150Y/R170E/N178Y/R233E/E240N
Consider B10, for which, in experiment [1], the KD-WT/KD-mut came out at 2.4 fold. The Kd in experiment [2] came to 39.6 nM.
